Assay results published in publication PMC9482650, “Quantitative fragmentomics allow affinity mapping of interactomes” (Nature Communications, 2022).

Assays:
Assay in all cases: holdup assay
Set-up in all cases: key: below the threshold = too weak to quantify, mostly under pKd 3.1 to 4
Conditions in all cases: plain residues with an end cap or a label only (N-terminal biotin on a linker: ado-ado)
APBA2_1, Q99767 = target: T1, APBA2_1, Q99767
T1 sequence (Q99767 563-664, limits assumed, looked up): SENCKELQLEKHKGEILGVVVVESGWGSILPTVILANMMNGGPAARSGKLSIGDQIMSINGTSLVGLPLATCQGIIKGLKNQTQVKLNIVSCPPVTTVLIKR

ARHGEF11, O15085 = target: T2, ARHGEF11, O15085
T2 sequence (O15085 42-136, limits assumed, looked up): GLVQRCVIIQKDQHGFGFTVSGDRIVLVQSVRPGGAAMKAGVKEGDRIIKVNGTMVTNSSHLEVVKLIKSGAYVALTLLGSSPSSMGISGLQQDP

ARHGEF12, Q9NZN5-2 = target: ARHGEF12, Q9NZN5-2
Chain of ARHGEF12, Q9NZN5-2 (Q9NZN5 other isoform, or with tags, fused parts or gaps): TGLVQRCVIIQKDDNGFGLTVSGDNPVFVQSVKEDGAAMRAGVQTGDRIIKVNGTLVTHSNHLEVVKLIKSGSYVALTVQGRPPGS

CASK, O14936 = target: CASK, O14936
Chain of CASK, O14936 (O14936 487-570): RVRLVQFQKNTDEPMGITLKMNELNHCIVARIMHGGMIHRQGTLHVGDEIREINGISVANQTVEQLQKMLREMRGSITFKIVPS

DLG2_2, Q15700 = target: DLG2_2, Q15700
DLG2_3, Q15700 = target: DLG2_3, Q15700
GRID2IP_1, A4D2P6 = target: GRID2IP_1, A4D2P6
Chain of GRID2IP_1, A4D2P6 (A4D2P6 1-87): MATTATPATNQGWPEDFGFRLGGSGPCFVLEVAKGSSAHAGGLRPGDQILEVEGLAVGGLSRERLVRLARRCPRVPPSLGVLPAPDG

GRIP1_2, Q9Y3R0 = target: T3, GRIP1_2, Q9Y3R0
T3 sequence (Q9Y3R0 145-248, limits assumed, looked up): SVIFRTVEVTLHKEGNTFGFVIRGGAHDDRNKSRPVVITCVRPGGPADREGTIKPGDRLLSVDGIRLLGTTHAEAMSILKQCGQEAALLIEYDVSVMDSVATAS

GRIP1_3, Q9Y3R0 = target: T4, GRIP1_3, Q9Y3R0
T4 sequence (Q9Y3R0 247-346, limits assumed, looked up): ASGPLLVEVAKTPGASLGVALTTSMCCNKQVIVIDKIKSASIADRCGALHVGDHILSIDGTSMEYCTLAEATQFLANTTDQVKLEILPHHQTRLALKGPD

GRIP2_6, Q9C0E4 = target: GRIP2_6, Q9C0E4
Chain of GRIP2_6, Q9C0E4 (Q9C0E4 648-740): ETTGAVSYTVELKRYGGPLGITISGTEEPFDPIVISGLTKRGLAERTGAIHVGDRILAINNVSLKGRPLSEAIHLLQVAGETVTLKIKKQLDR

HTRA1, Q92743 = target: HTRA1, Q92743
Chain of HTRA1, Q92743 (Q92743 360-477): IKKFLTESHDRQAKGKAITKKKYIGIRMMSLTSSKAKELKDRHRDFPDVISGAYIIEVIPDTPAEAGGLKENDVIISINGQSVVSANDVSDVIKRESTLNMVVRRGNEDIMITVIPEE

IL16_4, Q14005 = target: IL16_4, Q14005
Chain of IL16_4, Q14005 (Q14005 1229-1329): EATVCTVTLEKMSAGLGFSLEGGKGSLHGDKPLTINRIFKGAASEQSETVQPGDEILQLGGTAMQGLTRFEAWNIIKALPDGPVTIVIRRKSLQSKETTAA

Inadl_10, Q8NI35 = target: Inadl_10, Q8NI35
Chain of Inadl_10, Q8NI35 (Q8NI35 1673-1763): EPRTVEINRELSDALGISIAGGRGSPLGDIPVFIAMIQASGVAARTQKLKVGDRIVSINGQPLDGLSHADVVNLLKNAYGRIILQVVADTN

Inadl_2, Q8NI35 = target: Inadl_2, Q8NI35
Chain of Inadl_2, Q8NI35 (Q8NI35 238-335): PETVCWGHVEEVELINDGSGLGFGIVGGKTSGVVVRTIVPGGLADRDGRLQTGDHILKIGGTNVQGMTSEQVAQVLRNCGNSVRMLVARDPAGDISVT

LIN7C, Q9NUP9 = target: T5, LIN7C, Q9NUP9
T5 sequence (Q9NUP9 88-185, limits assumed, looked up): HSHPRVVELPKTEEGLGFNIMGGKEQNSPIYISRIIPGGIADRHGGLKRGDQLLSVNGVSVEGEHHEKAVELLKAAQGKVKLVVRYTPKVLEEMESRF

LNX1_2, Q8TBB1 = target: LNX1_2, Q8TBB1
Chain of LNX1_2, Q8TBB1 (Q8TBB1 371-470): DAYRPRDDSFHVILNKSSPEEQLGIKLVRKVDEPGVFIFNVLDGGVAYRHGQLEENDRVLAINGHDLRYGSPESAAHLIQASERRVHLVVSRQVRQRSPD

MAGI1_1, Q96QZ7 = target: MAGI1_1, Q96QZ7
Chain of MAGI1_1, Q96QZ7 (Q96QZ7 1-106): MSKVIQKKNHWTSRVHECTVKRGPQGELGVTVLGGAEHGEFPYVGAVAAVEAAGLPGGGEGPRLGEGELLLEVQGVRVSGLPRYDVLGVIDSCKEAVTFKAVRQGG

NHERF3_1, Q5T2W1 = target: T6, NHERF3_1, Q5T2W1
T6 sequence (Q5T2W1 4-100, limits assumed, looked up): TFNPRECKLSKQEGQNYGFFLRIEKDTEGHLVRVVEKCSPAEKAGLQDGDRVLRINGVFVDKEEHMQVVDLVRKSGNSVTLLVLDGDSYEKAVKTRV

NHERF3_3, Q5T2W1 = target: T7, NHERF3_3, Q5T2W1
T7 sequence (Q5T2W1 238-333, limits assumed, looked up): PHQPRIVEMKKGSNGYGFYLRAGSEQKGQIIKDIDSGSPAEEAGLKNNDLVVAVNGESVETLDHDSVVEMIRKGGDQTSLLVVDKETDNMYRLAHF

PDZRN4_1, Q6ZMN7 = target: PDZRN4_1, Q6ZMN7
Chain of PDZRN4_1, Q6ZMN7 (Q6ZMN7 213-318): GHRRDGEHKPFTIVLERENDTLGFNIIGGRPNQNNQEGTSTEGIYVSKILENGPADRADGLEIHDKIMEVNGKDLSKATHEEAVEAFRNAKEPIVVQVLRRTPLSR

RADIL, Q96JH8 = target: T8, RADIL, Q96JH8
T8 sequence (Q96JH8 971-1071, limits assumed, looked up): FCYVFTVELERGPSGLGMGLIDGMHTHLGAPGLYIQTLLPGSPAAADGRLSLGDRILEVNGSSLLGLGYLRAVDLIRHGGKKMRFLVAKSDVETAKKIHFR

RHPN1, Q8TCX5 = target: T9, RHPN1, Q8TCX5
T9 sequence (Q8TCX5 508-602, limits assumed, looked up): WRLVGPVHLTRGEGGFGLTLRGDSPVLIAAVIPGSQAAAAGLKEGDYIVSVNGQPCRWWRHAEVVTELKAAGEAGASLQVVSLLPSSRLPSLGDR

SNTG1, Q9NSN8 = target: T10, SNTG1, Q9NSN8
T10 sequence (Q9NSN8 52-150, limits assumed, looked up): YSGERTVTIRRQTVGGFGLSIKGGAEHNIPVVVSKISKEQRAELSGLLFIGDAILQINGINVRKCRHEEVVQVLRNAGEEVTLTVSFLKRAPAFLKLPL

SYNJ2BP, P57105 = target: T11, SYNJ2BP, P57105
T11 sequence (P57105 8-110, limits assumed, looked up): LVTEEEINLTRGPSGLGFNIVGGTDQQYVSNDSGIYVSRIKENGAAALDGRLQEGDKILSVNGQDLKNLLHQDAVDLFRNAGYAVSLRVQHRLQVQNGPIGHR

TJP1_2, Q07157 = target: TJP1_2, Q07157
Chain of TJP1_2, Q07157 (Q07157 181-274): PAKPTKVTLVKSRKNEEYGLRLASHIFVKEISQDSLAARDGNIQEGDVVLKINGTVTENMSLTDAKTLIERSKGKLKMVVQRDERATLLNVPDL

TJP3_3, O95049 = target: T12, TJP3_3, O95049
T12 sequence (O95049 375-456, limits assumed, looked up): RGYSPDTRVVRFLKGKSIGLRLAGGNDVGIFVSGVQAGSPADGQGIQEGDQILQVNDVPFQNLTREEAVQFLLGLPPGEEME

Binder | pKd (APBA2_1, Q99767) | pKd (ARHGEF11, O15085) | pKd (ARHGEF12, Q9NZN5-2) | pKd (CASK, O14936) | pKd (DLG2_2, Q15700) | pKd (DLG2_3, Q15700) | pKd (GRID2IP_1, A4D2P6) | pKd (GRIP1_2, Q9Y3R0) | pKd (GRIP1_3, Q9Y3R0) | pKd (GRIP2_6, Q9C0E4) | pKd (HTRA1, Q92743) | pKd (IL16_4, Q14005) | pKd (Inadl_10, Q8NI35) | pKd (Inadl_2, Q8NI35) | pKd (LIN7C, Q9NUP9) | pKd (LNX1_2, Q8TBB1) | pKd (MAGI1_1, Q96QZ7) | pKd (NHERF3_1, Q5T2W1) | pKd (NHERF3_3, Q5T2W1) | pKd (PDZRN4_1, Q6ZMN7) | other results
PEEGKKQSQC [GAGE12J, A6NER3] | below the threshold | 3.62 | 3.84 | below the threshold | below the threshold | 3.61 | below the threshold | below the threshold | below the threshold | below the threshold | below the threshold | 3.69 | below the threshold | below the threshold | below the threshold | below the threshold | below the threshold | 3.68 | below the threshold | below the threshold | pKd (RADIL, Q96JH8): below the threshold; pKd (RHPN1, Q8TCX5): below the threshold; pKd (SNTG1, Q9NSN8): below the threshold; pKd (SYNJ2BP, P57105): 3.54; pKd (TJP1_2, Q07157): below the threshold; pKd (TJP3_3, O95049): below the threshold
PKLMGVETVV [DUSP10, Q9Y6W6] | below the threshold | 4 | 3.74 | below the threshold | 5.36 | 4.21 | below the threshold | below the threshold | below the threshold | below the threshold | 4.6 | below the threshold | below the threshold | below the threshold | 3.81 | 3.96 | 3.52 | below the threshold | below the threshold | 3.7 | pKd (RADIL, Q96JH8): 4.5; pKd (RHPN1, Q8TCX5): 4.42; pKd (SNTG1, Q9NSN8): 4.47; pKd (SYNJ2BP, P57105): 4.69; pKd (TJP1_2, Q07157): 3.67; pKd (TJP3_3, O95049): below the threshold
QLAEIAESGL [ITK, Q08881] | 3.58 | 4.05 | below the threshold | below the threshold | 3.57 | below the threshold | below the threshold | below the threshold | below the threshold | 3.48 | below the threshold | 3.8 | below the threshold | below the threshold | below the threshold | below the threshold | 3.62 | 4.76 | below the threshold | 3.91 | pKd (RADIL, Q96JH8): below the threshold; pKd (RHPN1, Q8TCX5): 3.83; pKd (SNTG1, Q9NSN8): 3.72; pKd (SYNJ2BP, P57105): 3.84; pKd (TJP1_2, Q07157): below the threshold; pKd (TJP3_3, O95049): below the threshold
